Measurements taken from patent US20150368338A1 (Janssen / Centocor, published 2015).
Positions count from the first letter of the chain named.

T1: IFN-αF (human, UniProt P01568 24-189)
T1 construct: also called IFN-α21; alpha F
T1 chain: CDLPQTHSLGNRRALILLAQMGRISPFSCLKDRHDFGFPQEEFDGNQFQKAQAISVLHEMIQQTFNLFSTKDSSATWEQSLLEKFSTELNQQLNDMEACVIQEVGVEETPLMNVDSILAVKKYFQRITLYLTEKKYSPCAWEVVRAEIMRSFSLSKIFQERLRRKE

B1: IFWM371 (antibody, V domains shown)
VH: EVQLVQSGAEVKKPGESLKISCKGSGYSFTSYWIGWVRQMPGKGLEWMGIIDPSDSDTRYSPSFQGQVTISADKSISTAYLQWSSLKASDTAMYYCARHPGLNWAPDFDYWGQGTLVTVSS
VL: not shown
notes: VH IFWH591, VL PH9L4; parental mAb, IgG1/kappa; also called IFWB351
B2: IFWM3356 (antibody, V domains shown)
VH: B1 VH with R59A
VL: DIQMTQSPSSLSASVGDRVTITCRASQSISKFLNWYQQKPGKAPKLLIYFASSLQSGVPSRFSGSGSGTDFTLTISSLQPEDFATYYCQQSYDFPITFGQGTKVEIK
notes: VH IFWH624, VL IFWL1026; converted mAb; also called IFWB3091
B3: IFWM3323 (antibody, V domains shown)
VH: B1 VH
VL: B2 VL with S30T, K31N, F32H, S91A, Y92H, D93N, I96L
notes: VH IFWH591, VL IFWL1053; converted mAb; also called IFWB3058
B4: IFWM3302 (antibody, V domains shown)
VH: B1 VH
VL: B2 VL with S30N, K31R, F50A, S91A, Y92I, F94L, I96F
notes: VH IFWH591, VL IFWL991; converted mAb; also called IFWB3037
B5: IFWM3303 (antibody, V domains shown)
VH: B1 VH
VL: B2 VL with S30G, K31S, D93S, F94I
notes: VH IFWH591, VL IFWL992; converted mAb; also called IFWB3038
B6: IFWM3291 (antibody, V domains shown)
VH: B1 VH
VL: B2 VL with S30D, K31E, S91A, Y92H, D93S, I96L
notes: VH IFWH591, VL IFWL999; converted mAb; also called IFWB3026
B7: IFWM3313 (antibody, V domains shown)
VH: B1 VH
VL: B2 VL with S30N, K31N, Y92F, D93N, F94L
notes: VH IFWH591, VL IFWL1013; converted mAb; also called IFWB3048
B8: IFWM3301 (antibody, V domains shown)
VH: B1 VH
VL: B2 VL with S30D, K31G, F32S, I96L
notes: VH IFWH591, VL IFWL983; converted mAb; also called IFWB3036
B9: IFWM3307 (antibody, V domains shown)
VH: B1 VH
VL: B2 VL with S30G, K31D, S91A, Y92L, I96L
notes: VH IFWH591, VL IFWL1001; converted mAb; also called IFWB3042
B10: IFWM3312 (antibody, V domains shown)
VH: B1 VH
VL: B2 VL with S30D, K31G, F32A, Y92F, I96L
notes: VH IFWH591, VL IFWL1010; converted mAb; also called IFWB3047
B11: IFWM3292 (antibody, V domains shown)
VH: B1 VH with R59A
VL: B2 VL with S30D, K31E, S91A, Y92H, D93S, I96L
notes: VH IFWH624, VL IFWL999; converted mAb; also called IFWB3027

Biological target: T2, human IFN-ω (human, UniProt P05000 24-195)
T2 construct: also called interferon omega
Assay: ProteOn, one antigen concentration

| Kd | Binder |
| --- | --- |
| 1.06 nM | B1 |
| 0.274 nM | B2 |
| 0.073 nM | B3 |
| 0.052 nM | B4 |
| 0.013 nM | B5 |
| 0.028 nM | B6 |
| 0.056 nM | B7 |
| 0.018 nM | B8 |
| 0.046 nM | B9 |
| 0.013 nM | B10 |
| 0.018 nM | B11 |

Biological target: T3, IFN-αC (human, UniProt P01566 24-189)
T3 construct: also called IFN-α10; alpha C
Assay: ProteOn, one antigen concentration

| Kd | Binder |
| --- | --- |
| 0.865 nM | B1 |
| 0.083 nM | B4 |
| 0.079 nM | B5 |
| 0.045 nM | B6 |
| 0.024 nM | B8 |
| 0.062 nM | B9 |
| 0.123 nM | B11 |

Biological target: T1, IFN-αF
Assay: ProteOn, one antigen concentration

| Kd | Binder |
| --- | --- |
| 0.775 nM | B1 |
| 0.048 nM | B3 |
| 0.072 nM | B4 |
| 0.134 nM | B5 |
| 0.051 nM | B6 |
| 0.084 nM | B7 |
| 0.029 nM | B8 |
| 0.02 nM | B10 |
| 0.098 nM | B11 |

Biological target: T4, IFN-αJ1 (human, UniProt P01567 24-189)
T4 construct: also called IFN-α7; alpha J1
Assay: ProteOn, one antigen concentration

| Kd | Binder |
| --- | --- |
| 4.23 nM | B1 |
| 0.144 nM | B3 |
| 0.231 nM | B4 |
| 0.157 nM | B5 |
| 0.122 nM | B6 |
| 0.221 nM | B7 |
| 0.074 nM | B8 |
| 0.305 nM | B9 |
| 0.068 nM | B10 |
| 0.295 nM | B11 |

Biological target: T5, IFN-α4a (human, UniProt P05014 24-189)
T5 construct: also called IFN-αM1
Assay: ProteOn, one antigen concentration

| Kd | Binder |
| --- | --- |
| 0.337 nM | B3 |
| 0.268 nM | B4 |
| 0.299 nM | B5 |
| 0.317 nM | B6 |
| 0.354 nM | B7 |
| 0.146 nM | B8 |
| 0.426 nM | B9 |
| 0.144 nM | B10 |
| 0.613 nM | B11 |

Biological target: T6, IFN-αG (human, UniProt P01569 24-189)
T6 construct: also called IFN-α5; alpha G
Assay: ProteOn, one antigen concentration

| Kd | Binder |
| --- | --- |
| 0.263 nM | B1 |
| 0.094 nM | B3 |
| 0.098 nM | B4 |
| 0.082 nM | B5 |
| 0.067 nM | B6 |
| 0.118 nM | B7 |
| 0.029 nM | B8 |
| 0.058 nM | B9 |
| 0.013 nM | B10 |
| 0.049 nM | B11 |

Biological target: T7, IFN-αWA (human, UniProt P05015 24-189)
T7 construct: also called IFN-α16; alpha WA
Assay: ProteOn, one antigen concentration

| Kd | Binder |
| --- | --- |
| 1.39 nM | B1 |
| 0.121 nM | B3 |
| 0.168 nM | B4 |
| 0.168 nM | B5 |
| 0.125 nM | B6 |
| 0.155 nM | B7 |
| 0.079 nM | B8 |
| 0.162 nM | B9 |
| 0.038 nM | B10 |
| 0.072 nM | B11 |
